Biological target: rBac-RelA (human? (hRelA; expressed in Sf9), UniProt Q04206 1-551)
Test: fluorescence anisotropy

Chain of rBac-RelA (Q04206 whole entry): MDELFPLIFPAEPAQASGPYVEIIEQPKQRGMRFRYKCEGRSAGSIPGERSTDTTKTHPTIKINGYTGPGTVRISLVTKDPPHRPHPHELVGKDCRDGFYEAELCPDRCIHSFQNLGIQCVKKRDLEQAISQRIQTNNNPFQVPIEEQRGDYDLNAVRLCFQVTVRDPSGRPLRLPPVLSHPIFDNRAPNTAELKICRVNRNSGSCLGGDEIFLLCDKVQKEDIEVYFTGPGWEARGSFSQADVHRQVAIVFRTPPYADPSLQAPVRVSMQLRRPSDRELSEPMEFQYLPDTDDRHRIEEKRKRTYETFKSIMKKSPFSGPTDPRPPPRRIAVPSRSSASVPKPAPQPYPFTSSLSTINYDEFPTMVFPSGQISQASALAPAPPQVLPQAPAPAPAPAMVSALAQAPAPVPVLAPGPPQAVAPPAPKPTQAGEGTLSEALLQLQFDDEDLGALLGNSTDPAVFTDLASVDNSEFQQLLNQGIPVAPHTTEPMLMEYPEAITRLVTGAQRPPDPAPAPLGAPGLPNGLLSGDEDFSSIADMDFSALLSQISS

B1: fluorescein ssDNA negative control containing κB site (ssDNA)
DNA: ATCGTGGGAAAGTTTCTGGATATTCCCTTGGA
B1: no binding.
